Measured values published in the supplement of paper PMC5998384.

How the values were obtained:
HeLa Kyoto [1] = assay: solubility in G1/S (NP-40 vs SDS abundance) (log2 ratio); higher = more soluble; settings: cell cycle stage: G1/S
HeLa Kyoto [2] = assay: melting temperature (median over replicates), in situ; higher = more thermally stable
HeLa Kyoto [3] = assay: solubility change mitosis vs G1/S (difference of NP-40 vs SDS log2 ratios) (log2 ratio difference); higher = more soluble in mitosis
HeLa Kyoto [4] = assay: thermal stability score vs G1/S (z-score of summed log2 fold changes over temperatures); higher = more thermally stable than in G1/S
[5] = cell cycle stage: early G1 (4.5 h after nocodazole release)
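Wherever melting temperature (median over replicates), in situ is given: HeLa Kyoto cells synchronized by double thymidine or nocodazole block, proteins quantified by TMT10plex mass spectrometry, three independent biological replicates.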
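Wherever solubility change mitosis vs G1/S (difference of NP-40 vs SDS log2 ratios) is given: synchronized HeLa Kyoto cells (double thymidine block for G1/S, nocodazole release for mitosis), protein amounts in NP-40 versus SDS lysates quantified by mass spectrometry, three biological replicates.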
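Wherever solubility in G1/S (NP-40 vs SDS abundance) is given: HeLa Kyoto cells arrested at G1/S by double thymidine block, proteins quantified by TMT10plex mass spectrometry in mild NP-40 versus SDS extracts, three biological replicates.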
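Wherever thermal stability score vs G1/S (z-score of summed log2 fold changes over temperatures) is given: synchronized HeLa Kyoto cells, proteins quantified by TMT10plex mass spectrometry, three biological replicates, mitosis taken 0.5 h after nocodazole release, G1/S directly after double thymidine block.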

Row | Substance | solubility in G1/S (log2) (HeLa Kyoto [1]) | melting temperature (HeLa Kyoto [2]; cell cycle stage: G1/S) [°C] | melting temperature (HeLa Kyoto [2]; cell cycle stage: mitosis) [°C] | solubility change mitosis (log2) (HeLa Kyoto [3]) | thermal stability score (HeLa Kyoto [4]; [5]) | thermal stability score (HeLa Kyoto [4]; cell cycle stage: mitosis)
1 | MAAPRPPPARLSGVMVPAPIQDLEALRALTALFKEQRNRETAPRTIFQRVLDILKKSSHAVELACRDPSQVENLASSLQLITECFRCLRNACIECSVNQNSIRNLDTIGVAVDLILLFRELRVEQESLLTAFRCGLQFLGNIASRNEDSQSIVWVHAFPELFLSCLNHPDKKIVAYSSMILFTSLNHERMKELEENLNIAIDVIDAYQKHPESEWPFLIITDLFLKSPELVQAMFPKLNNQERVTLLDLMIAKITSDEPLTKDDIPVFLRHAELIASTFVDQCKTVLKLASEEPPDDEEALATIRLLDVLCEMTVNTELLGYLQVFPGLLERVIDLLRVIHVAGKETTNIFSNCGCVRAEGDISNVANGFKSHLIRLIGNLCYKNKDNQDKVNELDGIPLILDNCNISDSNPFLTQWVIYAIRNLTEDNSQNQDLIAKMEEQGLADASLLKKVGFEVEKKGEKLILKSTRDTPKP [ATXN10] | 0.202 | 51.9 | 51.1 | -0.135 | 0.984 | 1.43
2 | SNRNP200 | -0.756 | 50 | 50.8 | 0.171 | 2.93 | 4.86
3 | MESAAALHFSRPASLLLLLLSLCALVSAQFIVVGPTDPILATVGENTTLRCHLSPEKNAEDMEVRWFRSQFSPAVFVYKGGRERTEEQMEEYRGRTTFVSKDISRGSVALVIHNITAQENGTYRCYFQEGRSYDEAILHLVVAGLGSKPLISMRGHEDGGIRLECISRGWYPKPLTVWRDPYGGVAPALKEVSMPDADGLFMVTTAVIIRDKSVRNMSCSINNTLLGQKKESVIFIPESFMPSVSPCAVALPIIVVILMIPIAVCIYWINKLQKEKKILSGEKEFERETREIALKELEKERVQKEEELQVKEKLQEELRWRRTFLHAVDVVLDPDTAHPDLFLSEDRRSVRRCPFRHLGESVPDNPERFDSQPCVLGRESFASGKHYWEVEVENVIEWTVGVCRDSVERKGEVLLIPQNGFWTLEMHKGQYRAVSSPDRILPLKESLCRVGVFLDYEAGDVSFYNMRDRSHIYTCPRSAFSVPVRPFFRLGCEDSPIFICPALTGANGVTVPEEGLTLHRVGTHQSL [BTN2A1] | -0.062 | 52.7 | 53.4 | -0.101 | -0.399 | -0.343
4 | MSIFPKISLRPEVENYLKEGFMNKEIVTALGKQEAERKFETLLKHLSHPPSFTTVRVNTHLASVQHVKNLLLDELQKQFNGLSVPILQHPDLQDVLLIPVIGPRKNIKKQQCEAIVGAQCGNAVLRGAHVYAPGIVSASQFMKAGDVISVYSDIKGKCKKGAKEFDGTKVFLGNGISELSRKEIFSGLPELKGMGIRMTEPVYLSPSFDSVLPRYLFLQNLPSALVSHVLNPQPGEKILDLCAAPGGKTTHIAALMHDQGEVIALDKIFNKVEKIKQNALLLGLNSIRAFCFDGTKAVKLDMVEDTEGEPPFLPESFDRILLDAPCSGMGQRPNMACTWSVKEVASYQPLQRKLFTAAVQLLKPEGVLVYSTCTITLAENEEQVAWALTKFPCLQLQPQEPQIGGEGMRGAGLSCEQLKQLQRFDPSAVPLPDTDMDSLREARREDMLRLANKDSIGFFIAKFVKCKST [NSUN6] | 0.29 | 51.8 | 51.4 | -0.179 | -0.273 | 0.177
5 | MSGQSLTDRITAAQHSVTGSAVSKTVCKATTHEIMGPKKKHLDYLIQCTNEMNVNIPQLADSLFERTTNSSWVVVFKSLITTHHLMVYGNERFIQYLASRNTLFNLSNFLDKSGLQGYDMSTFIRRYSRYLNEKAVSYRQVAFDFTKVKRGADGVMRTMNTEKLLKTVPIIQNQMDALLDFNVNSNELTNGVINAAFMLLFKDAIRLFAAYNEGIINLLEKYFDMKKNQCKEGLDIYKKFLTRMTRISEFLKVAEQVGIDRGDIPDLSQAPSSLLDALEQHLASLEGKKIKDSTAASRATTLSNAVSSLASTGLSLTKVDEREKQAALEEEQARLKALKEQRLKELAKKPHTSLTTAASPVSTSAGGIMTAPAIDIFSTPSSSNSTSKLPNDLLDLQQPTFHPSVHPMSTASQVASTWGDPFSATVDAVDDAIPSLNPFLTKSSGDVHLSISSDVSTFTTRTPTHEMFVGFTPSPVAQPHPSAGLNVDFESVFGNKSTNVIVDSGGFDELGGLLKPTVASQNQNLPVAKLPPSKLVSDDLDSSLANLVGNLGIGNGTTKNDVNWSQPGEKKLTGGSNWQPKVAPTTAWNAATMAPPVMAYPATTPTGMIGYGIPPQMGSVPVMTQPTLIYSQPVMRPPNPFGPVSGAQIQFM [PICALM] | 0.0523 | 53.7 | 53.1 | -0.0327 | -1.28 | -1.63
6 | MAGAAGLTAEVSWKVLERRARTKRSGSVYEPLKSINLPRPDNETLWDKLDHYYRIVKSTLLLYQSPTTGLFPTKTCGGDQKAKIQDSLYCAAGAWALALAYRRIDDDKGRTHELEHSAIKCMRGILYCYMRQADKVQQFKQDPRPTTCLHSVFNVHTGDELLSYEEYGHLQINAVSLYLLYLVEMISSGLQIIYNTDEVSFIQNLVFCVERVYRVPDFGVWERGSKYNNGSTELHSSSVGLAKAALEAINGFNLFGNQGCSWSVIFVDLDAHNRNRQTLCSLLPRESRSHNTDAALLPCISYPAFALDDEVLFSQTLDKVVRKLKGKYGFKRFLRDGYRTSLEDPNRCYYKPAEIKLFDGIECEFPIFFLYMMIDGVFRGNPKQVQEYQDLLTPVLHHTTEGYPVVPKYYYVPADFVEYEKNNPGSQKRFPSNCGRDGKLFLWGQALYIIAKLLADELISPKDIDPVQRYVPLKDQRNVSMRFSNQGPLENDLVVHVALIAESQRLQVFLNTYGIQTQTPQQVEPIQIWPQQELVKAYLQLGINEKLGLSGRPDRPIGCLGTSKIYRILGKTVVCYPIIFDLSDFYMSQDVFLLIDDIKNALQFIKQYWKMHGRPLFLVLIREDNIRGSRFNPILDMLAALKKGIIGGVKVHVDRLQTLISGAVVEQLDFLRISDTEELPEFKSFEELEPPKHSKVKRQSSTPSAPELGQQPDVNISEWKDKPTHEILQKLNDCSCLASQAILLGILLKREGPNFITKEGTVSDHIERVYRRAGSQKLWLAVRYGAAFTQKFSSSIAPHITTFLVHGKQVTLGAFGHEEEVISNPLSPRVIQNIIYYKCNTHDEREAVIQQELVIHIGWIISNNPELFSGMLKIRIGWIIHAMEYELQIRGGDKPALDLYQLSPSEVKQLLLDILQPQQNGRCWLNRRQIDGSLNRTPTGFYDRVWQILERTPNGIIVAGKHLPQQPTLSDMTMYEMNFSLLVEDTLGNIDQPQYRQIVVELLMVVSIVLERNPELEFQDKVDLDRLVKEAFNEFQKDQSRLKEIEKQDDMTSFYNTPPLGKRGTCSYLTKAVMNLLLEGEVKPNNDDPCLIS [PHKB] | -0.047 | 50.2 | 49.3 | -0.191 | -0.245 | 0.284
7 | MSASVVSVISRFLEEYLSSTPQRLKLLDAYLLYILLTGALQFGYCLLVGTFPFNSFLSGFISCVGSFILAVCLRIQINPQNKADFQGISPERAFADFLFASTILHLVVMNFVG [DAD1] | -0.0329 | 54.5 | 54.2 | -0.257 | 0.505 | -0.552
8 | MGKAAAPSRGGGCGGRSRGLSSLFTVVPCLSCHTAAPGMSASTSGSGPEPKPQPQPVPEPERGPLSEQVSEAVSEAVPRSEPVSETTSEPEPGAGQPSELLQGSRPGSESSSGVGAGPFTKAASEPLSRAVGSATFLRPESGSLPALKPLPLLRPGQAKTPLGVPMSGTGTTSSAPLALLPLDSFEGWLLKWTNYLKGYQRRWFVLGNGLLSYYRNQGEMAHTCRGTINLSTAHIDTEDSCGILLTSGARSYHLKASSEVDRQQWITALELAKAKAVRVMNTHSDDSGDDDEATTPADKSELHHTLKNLSLKLDDLSTCNDLIAKHGAALQRSLTELDGLKIPSESGEKLKVVNERATLFRITSNAMINACRDFLELAEIHSRKWQRALQYEQEQRVHLEETIEQLAKQHNSLERAFHSAPGRPANPSKSFIEGSLLTPKGEDSEEDEDTEYFDAMEDSTSFITVITEAKEDSRKAEGSTGTSSVDWSSADNVLDGASLVPKGSSKVKRRVRIPNKPNYSLNLWSIMKNCIGRELSRIPMPVNFNEPLSMLQRLTEDLEYHHLLDKAVHCTSSVEQMCLVAAFSVSSYSTTVHRIAKPFNPMLGETFELDRLDDMGLRSLCEQVSHHPPSAAHYVFSKHGWSLWQEITISSKFRGKYISIMPLGAIHLEFQASGNHYVWRKSTSTVHNIIVGKLWIDQSGDIEIVNHKTNDRCQLKFLPYSYFSKEAARKVTGVVSDSQGKAHYVLSGSWDEQMECSKVMHSSPSSPSSDGKQKTVYQTLSAKLLWKKYPLPENAENMYYFSELALTLNEHEEGVAPTDSRLRPDQRLMEKGRWDEANTEKQRLEEKQRLSRRRRLEACGPGSSCSSEEEKEADAYTPLWFEKRLDPLTGEMACVYKGGYWEAKEKQDWHMCPNIF [OSBP2] | 0.0107 | 50.7 | 51 | -0.137 | -0.699 | -0.707
